The target in the test is T1, Ric-8AΔC492 (rat Ric-8A residues 1–492) (rat, UniProt Q80ZG1 1-492).
T1 construct: Ric-8A, rat, residues 1-492; The His tag is used to adsorb it to IMAC resin in the NMR experiment; also called ΔC492Ric-8A; source: E. coli BL21 (DE3)-RIPL, purified (nickel NTA-agarose, UNO-Q); not shown: His6, N-terminal, kept
T1 sequence (looked up): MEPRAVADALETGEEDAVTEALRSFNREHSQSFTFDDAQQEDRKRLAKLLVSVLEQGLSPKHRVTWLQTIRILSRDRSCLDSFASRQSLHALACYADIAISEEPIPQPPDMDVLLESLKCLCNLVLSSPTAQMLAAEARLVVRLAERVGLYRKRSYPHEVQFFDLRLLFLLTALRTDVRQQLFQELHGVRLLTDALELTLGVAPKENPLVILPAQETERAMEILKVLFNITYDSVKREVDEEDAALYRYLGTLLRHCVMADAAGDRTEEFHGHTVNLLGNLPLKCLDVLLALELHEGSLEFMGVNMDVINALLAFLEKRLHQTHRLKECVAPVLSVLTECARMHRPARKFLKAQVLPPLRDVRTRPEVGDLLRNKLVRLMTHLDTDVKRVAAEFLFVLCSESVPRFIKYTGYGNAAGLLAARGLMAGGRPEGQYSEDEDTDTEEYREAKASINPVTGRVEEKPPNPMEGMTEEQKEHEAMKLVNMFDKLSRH
Description: ITC; 250 µM peptide injected into 25 µM Ric-8A in the cell, 25°C, single binding site model. Conditions: both partners purified. In general terms: In ITC the heat of successive injections is recorded.

Data on one molecule can be found in publication PMC3154933, “The Nucleotide Exchange Factor Ric-8A Is a Chaperone for the Conformationally Dynamic Nucleotide-Free State of Gαi1” (PLoS ONE, 2011).

No end group written: not given here.

B1: Gαi1C18, amidated peptide of the 18 C-terminal residues of rat Gαi1 (peptide)
peptide: DAVTDVIIKNNLKDCGLF-NH2
notes: Gαi1, rat, the C-terminal 18 residues; source: synthetic peptide (FMOC chemistry, HPLC purified)
Broadly, the Kd is the constant that tells how readily two partners part at equilibrium. A low value points to a tighter complex. The term stoichiometry N denotes the number of molecules, sites or subunits per partner or assembly. Turning to B1, the dissociation constant Kd was determined as 12 µM, the dH is -5.3 kcal/mol and the “stoichiometry N” value was found to be 0.9.
